Target: Purified human ACSS2 (bacterially expressed) (human, UniProt Q9NR19 1-701)
Experiment: pull-down

Chain of Purified human ACSS2 (bacterially expressed) (Q9NR19 whole entry): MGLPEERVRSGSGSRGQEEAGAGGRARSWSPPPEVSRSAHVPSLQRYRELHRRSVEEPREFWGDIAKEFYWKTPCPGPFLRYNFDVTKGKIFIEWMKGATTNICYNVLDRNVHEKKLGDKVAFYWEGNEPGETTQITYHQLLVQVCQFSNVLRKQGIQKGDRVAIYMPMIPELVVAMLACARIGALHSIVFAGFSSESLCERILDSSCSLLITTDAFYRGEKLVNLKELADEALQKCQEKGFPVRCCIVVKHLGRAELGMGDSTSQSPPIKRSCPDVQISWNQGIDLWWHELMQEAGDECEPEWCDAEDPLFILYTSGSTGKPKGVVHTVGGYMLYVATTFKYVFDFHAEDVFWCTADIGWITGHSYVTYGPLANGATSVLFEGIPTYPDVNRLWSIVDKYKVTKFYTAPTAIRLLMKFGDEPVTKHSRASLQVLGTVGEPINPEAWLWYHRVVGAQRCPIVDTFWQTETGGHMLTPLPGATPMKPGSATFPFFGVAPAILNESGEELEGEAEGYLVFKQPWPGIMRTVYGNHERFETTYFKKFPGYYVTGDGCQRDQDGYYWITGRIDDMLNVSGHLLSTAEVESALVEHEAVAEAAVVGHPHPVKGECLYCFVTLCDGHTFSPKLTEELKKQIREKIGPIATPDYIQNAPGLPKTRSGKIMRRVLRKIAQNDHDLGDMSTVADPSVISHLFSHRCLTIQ

B1: Purified human PAICS (bacterially expressed) (natural protein, UniProt P22234 1-425, looked up)
chain: MATAEVLNIGKKLYEGKTKEVYELLDSPGKVLLQSKDQITAGNAARKNHLEGKAAISNKITSCIFQLLQEAGIKTAFTRKCGETAFIAPQCEMIPIEWVCRRIATGSFLKRNPGVKEGYKFYPPKVELFFKDDANNDPQWSEEQLIAAKFCFAGLLIGQTEVDIMSHATQAIFEILEKSWLPQNCTLVDMKIEFGVDVTTKEIVLADVIDNDSWRLWPSGDRSQQKDKQSYRDLKEVTPEGLQMVKKNFEWVAERVELLLKSESQCRVVVLMGSTSDLGHCEKIKKACGNFGIPCELRVTSAHKGPDETLRIKAEYEGDGIPTVFVAVAGRSNGLGPVMSGNTAYPVISCPPLTPDWGVQDVWSSLRLPSGLGCSTVLSPEGSAQFAAQIFGLSNHLVWSKLRASILNTWISLKQADKKIRECNL
binding result: binds
